T1: C2 (Comptech A112) (UniProt P06681 21-752)
T1 sequence (looked up): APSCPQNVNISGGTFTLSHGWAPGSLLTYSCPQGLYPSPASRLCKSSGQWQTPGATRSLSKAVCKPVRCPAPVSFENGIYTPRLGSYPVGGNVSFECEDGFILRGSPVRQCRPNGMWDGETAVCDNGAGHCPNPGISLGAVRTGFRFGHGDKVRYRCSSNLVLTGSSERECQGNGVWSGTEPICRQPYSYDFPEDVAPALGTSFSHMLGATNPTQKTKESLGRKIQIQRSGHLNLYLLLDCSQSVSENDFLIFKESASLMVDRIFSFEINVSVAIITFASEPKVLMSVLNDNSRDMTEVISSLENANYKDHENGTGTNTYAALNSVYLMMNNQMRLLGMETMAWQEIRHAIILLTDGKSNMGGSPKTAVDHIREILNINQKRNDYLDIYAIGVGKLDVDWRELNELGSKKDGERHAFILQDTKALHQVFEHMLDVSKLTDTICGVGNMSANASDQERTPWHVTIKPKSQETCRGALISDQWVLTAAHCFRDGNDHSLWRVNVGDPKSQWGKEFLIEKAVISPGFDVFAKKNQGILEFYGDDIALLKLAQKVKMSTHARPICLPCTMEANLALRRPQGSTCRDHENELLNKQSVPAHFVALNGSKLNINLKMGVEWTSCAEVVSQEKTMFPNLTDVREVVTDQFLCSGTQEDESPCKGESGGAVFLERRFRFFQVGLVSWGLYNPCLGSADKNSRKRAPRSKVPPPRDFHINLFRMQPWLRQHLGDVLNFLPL

B1: VH6/Vκ7-IgG4v2 (antibody)
heavy: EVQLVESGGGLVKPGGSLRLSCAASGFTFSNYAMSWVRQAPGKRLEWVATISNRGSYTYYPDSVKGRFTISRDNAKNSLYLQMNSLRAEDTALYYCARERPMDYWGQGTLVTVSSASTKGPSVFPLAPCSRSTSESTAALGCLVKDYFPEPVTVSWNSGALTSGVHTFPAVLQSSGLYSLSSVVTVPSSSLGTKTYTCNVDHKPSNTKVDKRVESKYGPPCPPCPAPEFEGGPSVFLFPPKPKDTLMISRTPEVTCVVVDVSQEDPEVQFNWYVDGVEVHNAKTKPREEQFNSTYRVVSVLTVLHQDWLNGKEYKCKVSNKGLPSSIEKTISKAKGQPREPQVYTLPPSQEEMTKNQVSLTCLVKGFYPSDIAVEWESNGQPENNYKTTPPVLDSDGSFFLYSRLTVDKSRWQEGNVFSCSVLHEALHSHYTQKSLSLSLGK
light: DIQMTQSPSTLSASVGDRVTITCKASQDVGTAVAWYQQKPGKAPKLLIYWASTRHTGVPDRFSGSGSGTDFTLTISSLQAEDFAVYFCHQHSSNPLTFGQGTKLEIKRTVAAPSVFIFPPSDEQLKSGTASVVCLLNNFYPREAKVQWKVDNALQSGNSQESVTEQDSKDSTYSLSSTLTLSKADYEKHKVYACEVTHQGLSSPVTKSFNRGEC
notes: also called VH6/VK7-IgG4v2; VH6/VK7-IgG4v2_HEK
B2: VH0/Vκ0 (Chimeric) (antibody, V domains shown)
VH: EVQLVESGGALVKPGGSLKLSCAASGFTFSNYAMSWVRQTPEKRLEWVATISNRGSYTYYPDSVKGRFTISRDNAKNTLYLQMSSLRSEDTALYYCARERPMDYWGQGTSVTVSS
VL: DIVMTQSHKFMSTSVGDRVSITCKASQDVGTAVAWYQQKPGQSPKLLIYWASTRHTGVPDRFTGSGSGTDFTLTITNVQSEDLAVYFCHQHSSNPLTFGAGTKLELK
notes: also called chimeric antibody

Assays:
[1] = biological target: T2, Homo sapiens factor Bb protein (human, UniProt P00751 260-764); experiment: BLI Octet, biotinylated antibody on SA biosensors
T2 construct: Bought from CompTech (A155); also called complement factor Bb; human factor Bb
Procedure: Briefly, biotinylated antibodies were loaded onto SA Biosensors equilibrated in PBS, 0.1% BSA, 0.02% Tween-20 (assay buffer). After a 60 second baseline in assay buffer, antibodies were loaded onto the probes for 180 seconds, followed by another 60 second baseline. Association to human (Comptech) or cynomolgus monkey factor Bb (purified in-house) was measured for 300 seconds, followed by a 300 second dissociation. Kinetic parameters were calculated by the Octet Analysis software using a 1:1 binding model.
To determine whether the modification of the Fc portion of the antibodies affected affinity and species cross-reactivity, VH4/VK6-IgG4v2 and VH6/VK7-IgG4v2 were tested alongside their parental antibodies, VH4/VK6 and VH6/VK7, respectively, for their ability to bind human and cynomolgus monkey factor Bb by BLI. VH4/VK6-IgG4v2 and VH6/VK7-IgG4v2 contain mutations in the Fc region that increase the affinity for an Fc receptor.

C2 (Comptech A112) = biological target: T1, C2 (Comptech A112); experiment: ELISA, target coated at 2.5 µg/mL, biotinylated antibody titrated, streptavidin-HRP, OD450 background subtracted
Procedure: Briefly, complement and plasma proteins were coated onto ELISA plates at 2. 5 μg/mL in PBS overnight at 4° C. Plates were then blocked with Casein for 1 hour at room temperature and washed four times with 1× DPBS/0.05% Tween-20 followed by a single wash with 1× DPBS. Serial dilutions starting at 50 μg/ml of biotinylated chimeric parent or VH6/VK7-IgG4v2 were added to the plate in PBS/0.1%casein/0.1%Tween-20 and incubated for 2 hours at room temperature. Plates were washed as described and a 1:10,000 dilution of streptavidin-HRP (Southern Biotech 7100-05) in PBS/0.1% casein/0.1% Tween-20 was added to the plate and incubated for 30 minutes at room temperature. Plates were again washed and Ultra TMP ELISA (Thermo 34028) was added to the plate for 1 minute, followed by stop solution). OD 450 nm was read in a plate reader and background at 620 nm was subtracted. Both the chimeric parent (FIG. 8A) and the humanized variant (FIG. 8B) show complete specificity for factor Bb.

[2] = biological target: T2, Homo sapiens factor Bb protein; experiment: cell-based or functional assay
[3] = biological target: T2, Homo sapiens factor Bb protein; experiment: SPR single cycle kinetics; ratio against VH0/Vκ0
Procedure: (§1) In order to assess the binding of all humanized variants, single cycle kinetic analysis was performed on supernatants from transfected cell cultures. […] All single cycle kinetic experiments were run at 25° C. with HBS-P+running buffer (pH 7. 4) (GE Healthcare, Little Chalfont, UK).
(§2) Antibodies were diluted in running buffer to a final concentration of 1 μg/ml, based on concentrations assessed by ELISA titer. At the start of each cycle, antibodies were loaded onto Fc2, Fc3 and Fc4 of the Protein A chip (GE Healthcare, Little Chalfont, UK). IgGs were captured at a flow rate of 10 μl/min to give an immobilization level (RL) of ˜63 RU, the theoretical value to obtain an Rmax of ˜50 RU. The surface was then allowed to stabilize. Single cycle kinetic data was obtained with factor Bb (CompTech, Tyler, USA) as the analyte at a flow rate of 30 μl/min to minimize any potential mass transport limitations. Multiple repeats with the reference chimeric antibody were performed to check the stability of the surface and analyte over the kinetic cycles. The signal from the reference channel Fc1 (no antibody) was subtracted from that of Fc2, Fc3 and Fc4 to correct for differences in non-specific binding to a reference surface. A four point, two-fold dilution range from 0. 78 nM to 6. 25 nM factor Bb without regeneration between each concentration was used. The association phase for the four injections of increasing concentrations of factor Bb was monitored for 200 seconds each time and a single dissociation phase was measured for 200 seconds following the last injection of factor Bb. Regeneration of the Protein A surface was conducted using two injections of 10 mM glycine-HCL pH 1. 5.
The sensorgrams and fitted data for the single cycle kinetics are shown in FIGS. 1A-1D and the kinetic parameters measured for the interaction of factor Bb with each antibody are shown in Table 7. The relative KD was calculated by dividing the KD of the VH0/Vκ0 reference antibody by that of the humanized variant assayed in the same experiment.

[4] = biological target: T2, Homo sapiens factor Bb protein; experiment: SPR single cycle kinetics, IgG on Protein A chip, factor Bb analyte
Procedure: as §1, §2
Single cycle kinetics using cell culture supernatants were performed as described above.

T2 sequence (P00751 260-764 limits assumed): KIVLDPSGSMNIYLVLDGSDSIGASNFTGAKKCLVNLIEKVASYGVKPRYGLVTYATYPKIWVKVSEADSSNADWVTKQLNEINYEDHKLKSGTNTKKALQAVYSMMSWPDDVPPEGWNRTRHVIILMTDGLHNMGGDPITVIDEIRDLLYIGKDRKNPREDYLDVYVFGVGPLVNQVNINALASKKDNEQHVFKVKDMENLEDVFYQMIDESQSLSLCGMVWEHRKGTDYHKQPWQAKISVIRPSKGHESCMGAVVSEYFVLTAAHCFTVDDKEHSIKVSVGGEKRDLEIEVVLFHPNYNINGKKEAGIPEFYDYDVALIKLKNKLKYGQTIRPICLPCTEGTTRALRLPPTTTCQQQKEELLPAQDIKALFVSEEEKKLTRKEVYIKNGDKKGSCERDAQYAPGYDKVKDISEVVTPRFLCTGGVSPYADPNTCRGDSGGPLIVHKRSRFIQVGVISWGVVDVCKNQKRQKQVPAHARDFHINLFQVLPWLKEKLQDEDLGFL

Binder	Kd [1] [nM]	binding result (C2 (Comptech A112))	AP Assay IC50 [2] [nM]	Relative KD [3]	Kd [4] [nM]	koff [4] [s⁻¹]	kon [4] [M⁻¹ s⁻¹]
B1	1.7	no binding	–	–	–	–	–
B2	–	–	24	1	1.77	0.000949	535000

Source: US20210332115A1 (Sanofi, published 2021)
